Publication PMC5166498 (The Journal of Cell Biology, 2016)

Molecular target: T1, 6×His::UNC-84(912–1,111) (C. elegans, UniProt Q20745 912-1111)
T1 sequence (looked up): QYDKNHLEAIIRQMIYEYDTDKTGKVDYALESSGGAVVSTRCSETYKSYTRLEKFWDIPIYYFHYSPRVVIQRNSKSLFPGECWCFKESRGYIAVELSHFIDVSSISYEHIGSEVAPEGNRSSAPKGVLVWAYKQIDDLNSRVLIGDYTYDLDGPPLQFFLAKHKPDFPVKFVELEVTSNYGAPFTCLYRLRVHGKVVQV
Assay: SEC

binding result: binds
Binder: ASILVLGFLVFIAWMFININSALNAPPNA (domain or fragment, C. elegans, UniProt Q23529 749-777, looked up) [MBP::ZYG-12(749–777)]
